From the supplement of paper PMC10567573

B1: TMEM175 (parent)
chain: QTSAFARQPRDELERVRVSCTIIF
B2: RAD51 (parent)
chain: APKKELINIKGISEAKADKILAEA

Variants of: B1
Test: protein stability index of a GFP-peptide fusion (GPS, HEK-293T) (PSI 1-6); higher = more stable
Settings: c terminus: a fixed tail appended
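Further: lentivirally expressed fusions sorted by FACS into six bins by GFP to DsRed ratio, PSI derived from sequencing read proportions per bin multiplied by bin number.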

Variant | protein stability index
T21M | 2.77
T2L | 1.55
T2F | 2.49
T2Q | 4.14
T2A | 1.83
T2N | 1.66
V16F | 2
V16K | 1.97
C20W | 2.42
C20T | 1.51
F5A | 1.75
F5K | 1.34
Q8P | 2.1
Q8L | 1.87
Q8I | 2.01
Q8H | 2.68
R17I | 2.2
R17M | 2.91
D11E | 2.73
D11K | 3.33
R15C | 1.88
R15Q | 1.77
R15Y | 3.62
R15M | 2.04

Variant | protein stability index
I23H | 2.56
I23Y | 2.6
I23M | 2.91
I23A | 2.06
I23V | 3.26
I23L | 1.82
I23K | 2.07
I23N | 2.37
R7T | 2.68
R7K | 2.08
R7A | 2.46
A4E | 2.9
A4F | 1.88
A4T | 2.06
A4I | 1.96
A4S | 3.97
S19T | 3.22
S19V | 1.99
S19G | 2.74
S19N | 3.03
S19Q | 2.37
S19L | 1.78
R10Q | 3.27
R10D | 2.48

Variant | protein stability index
R10E | 2.31
R10V | 2.03
R10N | 2.57
R10W | 3.68
V18N | 2.35
V18M | 1.88
V18C | 1.82
V18K | 2.41
V18Q | 1.71
V18R | 1.57
E12H | 2.73
E12K | 2.07
Q1N | 3.4
Q1H | 1.6
Q1G | 3.41
Q1E | 2.25
Q1A | 3.97
E14P | 3.5
E14Q | 2.93
P9F | 2.38
P9E | 3.41
P9Y | 2.83
P9H | 2.88
A6L | 1.6

Variant | protein stability index
A6F | 1.36
A6V | 2.9
A6C | 3.04
A6H | 2.09
A6T | 1.44
F24Y | 2.08
F24G | 2.12
L13W | 2.89
L13F | 3.31
L13P | 2.37
L13G | 1.59
L13D | 1.3
L13R | 2.76
L13Y | 4.09
I22R | 2.42
I22Y | 1.69
I22L | 2.49
I22T | 2.71
I22A | 1.99
I22P | 3.2
S3H | 1.69

Variants of: B2
Test: as above
Settings: c terminus: a fixed tail appended

Variant | protein stability index
P2R | 4.02
P2H | 4.85
P2L | 3.97
P2M | 4.53
P2F | 3.62
P2I | 4.01
P2W | 3.79
P2T | 4.6
P2V | 4.44
P2S | 4.36
P2Q | 4.88
P2C | 4.5
P2K | 4.34
P2Y | 4.18
P2G | 4.68
P2N | 4.39
P2E | 4.7
P2A | 4.93
P2D | 5.18
I7H | 5.01
I7F | 3.8
I7L | 5.31
I7R | 4.59
I7A | 5.13
I7P | 5.04

Variant | protein stability index
I7W | 4.49
I7Q | 4.83
I7N | 4.7
I7G | 4.8
I7K | 4.78
I7E | 5.17
I7T | 5.04
I7V | 5.39
I7M | 4.99
I7Y | 4.73
I7D | 5.31
I7S | 5.52
I7C | 4.21
G11F | 3.69
G11P | 4.93
G11I | 3.39
G11R | 4.37
G11Y | 4.18
G11Q | 4.72
G11T | 4.59
G11A | 5.12
G11V | 4.37
G11C | 4.17
G11N | 4.62
G11M | 3.98

Variant | protein stability index
G11H | 4.8
G11E | 4.74
G11K | 4.68
G11L | 3.69
G11D | 4.9
G11W | 3.4
G11S | 5.46
E5I | 3.4
E5T | 3.85
E5C | 3.56
E5P | 4.54
E5D | 4.6
E5K | 4
E5N | 4.22
E5Y | 3.1
E5H | 4.48
E5M | 3.7
E5R | 4.16
E5A | 4.12
E5Q | 3.96
E5V | 3.65
E5S | 4.34
E5W | 3.01
E5F | 3.04
E5L | 3.65

Variant | protein stability index
E5G | 4.63
S13R | 4.36
S13F | 3.73
S13A | 4.97
S13N | 4.65
S13T | 5.02
S13V | 4.02
S13L | 4.21
S13H | 5.38
S13Q | 4.83
S13P | 4.88
S13K | 4.7
S13E | 5.23
S13I | 3.86
S13D | 5.12
S13C | 4.43
S13M | 4.56
K4M | 4.13
K4Y | 4.52
K4W | 3.98
K4R | 4.39
K4T | 4.69
K4I | 4.25
K4F | 4.5
K4G | 4.57

Variant | protein stability index
K4C | 4.68
K4S | 4.96
K4A | 4.44
K4Q | 4.6
K4V | 4.82
K4L | 4.19
K4H | 4.17
K4E | 5.22
K4P | 5.05
K4N | 4.95
K4D | 5.31
N8P | 4.88
N8A | 4.7
N8Y | 4.39
N8D | 4.88
N8E | 5.07
N8K | 4.13
N8T | 4.01
N8L | 3.5
N8I | 3.43
N8M | 4.17
N8W | 3.75
N8S | 4.32
N8V | 4.07
N8H | 4.69

Variant | protein stability index
N8F | 3.76
N8R | 4.79
N8Q | 4.67
L6N | 4.94
L6Y | 4.46
L6S | 4.79
L6R | 4.61
L6V | 5.2
L6H | 5.13
L6C | 4.97
L6W | 4.12
L6M | 4.92
L6P | 5.31
L6Q | 4.79
L6E | 5.28
L6D | 5.45
L6I | 4.4
L6T | 5.06
L6F | 4.4
L6K | 5
L6G | 4.73
L6A | 5.16
I9V | 5.1
I9N | 5.26
I9M | 5.06

Variant | protein stability index
I9E | 5.68
I9Q | 4.8
I9H | 4.66
I9L | 4.62
I9S | 4.89
I9D | 5.19
I9G | 5.11
I9Y | 4.91
I9T | 5.24
I9P | 5.4
I9K | 5.22
I9W | 4.65
I9R | 5.12
I9C | 5.4
I9F | 4.51
A1I | 4.39
A1W | 3.75
A1H | 4.37
A1F | 3.87
A1E | 5.23
A1P | 4.67
A1R | 4.63
A1K | 4.84
A1L | 4.72
A1T | 4.41

Variant | protein stability index
A1G | 4.71
A1M | 4.06
A1N | 4.71
A1Q | 4.55
A1Y | 3.83
A1C | 4.73
A1S | 4.52
A1V | 4.08
A1D | 4.31
K10E | 5.1
K10H | 4.59
K10P | 4.34
K10M | 4.02
K10Y | 3.8
K10R | 4.2
K10N | 4.42
K10A | 4.56
K10V | 4.38
K10G | 5.08
K10S | 5.35
K10L | 4.29
K10I | 3.64
K10W | 3.99
K10Q | 4.46
K10C | 4.19

Variant | protein stability index
K10F | 3.82
K10D | 5.12
K10T | 4.68
I12A | 5.28
I12C | 4.96
I12D | 5.91
I12G | 4.69
I12R | 5.14
I12N | 5.06
I12E | 4.54
I12W | 4.36
I12Q | 5.33
I12L | 4.64
I12K | 5.36
I12M | 4.98
I12F | 4.33
I12T | 5.16
I12P | 5.15
I12Y | 4.13
I12S | 5.27
I12V | 4.7
I12H | 5.44
K3E | 4.94
K3V | 5.06
K3T | 4.97

Variant | protein stability index
K3C | 4.28
K3N | 4.58
K3R | 4.58
K3Y | 3.85
K3M | 3.95
K3H | 4.87
K3F | 3.48
K3L | 3.3
K3A | 4.92
K3D | 4.71
K3S | 4.55
K3G | 4.65
K3P | 4.83
K3Q | 4.81
K3W | 3.81
K3I | 4.77
